Paper doi:10.1101/2022.11.16.516715 (bioRxiv, 2022)

Target: the molecule itself
Assay: cryo-EM structure

B1: RsmA (natural protein)
chain: not shown
B1: binds.
